The conditions of data set [1]: cited from earlier work.
Data set [2] has as its target T1, thrombin (Homo sapiens, UniProt P00734). The data set can be described thus: anti-thrombin activity of P2 released from fusion protein (test not specified). It is filed as biochemical. As to conditions: P2 released by CNBr cleavage of polyhedrin fusion protein from S. frugiperda cytoplasm. As for the experimental part:
The recombinant baculovirus was obtained as described in Example 5. Infection of S. frugiperda cells was carried out according to standard procedures^20. Cultivation of infected insect cells lead to the cytoplasmic accumulation of the fusion protein. This hybrid protein was the source of recombinant protein P2. Several methods are available from the literature which can be used to cleave the hybrid with CNBr^22,23.The application of the method of Olson et al^23, has allowed us to obtain the correct polypeptidic sequence of P2.

For data set [3], the target named is T1, thrombin. Kind of data set: chromogenic assay: inhibition of thrombin cleavage of synthetic substrate S-2238. It counts as biochemical.

Regarding hirudin, the “efficacy in preventing venous thrombosis, vascular shunt occlusion and thrombin-induced disseminated intravascular coagulation” value in data set [1] (animal studies) is reported as “demonstrated efficacy”. Besides, in data set [1] (in vivo), the antigenicity result is “little or no antigenicity”, the “clearance time from circulation” value is listed as “very short clearance time” and the toxicity entry was “low toxicity”.

B1: P2: 64-residue anti-thrombin polypeptide from Hirudinaria manillensis, HPLC peak P2, sequence (ii); also produced recombinantly in E. coli and insect cells (protein)
chain: VSYTDCTESGQNYCLCVGSNVCGEGKNCQLSSSGNQCVHGEGTPKPKSQTEGDFEEIPDEDILN
For the molecule B1, the anti-thrombin activity entry in the data set with thrombin [2] is reported as “displayed anti-thrombin activity”; in the data set with thrombin [3] (culture supernatants of S. frugiperda cells infected with recombinant baculovirus, spinner culture or monolayers) it was “presence of an anti-thrombin activity”; with thrombin [3] (periplasmic fraction of E. coli type B NCTC 10537 transformed with pFC-P2), “presence of anti-thrombin activity”. For the same molecule, the “activity of P2” value with thrombin [3] (E. coli type B strains with plasmid pOMP-P2 (Plpp/lac promoter)) is “active”.

These data come from US5356875A, “Anti-thrombin polypeptides and pharmaceutical compositions thereof” (Farmitalia Carlo ERBA S.r.l., priority 1991, dated 1994).
